T1: fragment C of tetanus toxoid (Sigma, T3694) (Clostridium tetani, UniProt P04958 865-1315)
T1 sequence: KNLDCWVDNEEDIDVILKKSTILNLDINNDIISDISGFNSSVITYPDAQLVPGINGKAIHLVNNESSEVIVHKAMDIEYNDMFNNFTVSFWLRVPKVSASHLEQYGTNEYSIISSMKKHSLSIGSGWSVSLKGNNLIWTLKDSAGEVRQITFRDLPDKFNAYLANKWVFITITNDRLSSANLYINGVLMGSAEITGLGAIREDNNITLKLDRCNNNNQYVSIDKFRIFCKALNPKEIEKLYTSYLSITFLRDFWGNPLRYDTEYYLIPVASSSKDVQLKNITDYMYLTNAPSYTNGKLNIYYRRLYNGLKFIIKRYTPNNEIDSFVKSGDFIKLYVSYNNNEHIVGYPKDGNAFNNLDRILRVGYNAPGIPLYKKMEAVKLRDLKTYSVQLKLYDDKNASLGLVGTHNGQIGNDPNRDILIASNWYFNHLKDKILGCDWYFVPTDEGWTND

B1: Antibody 4 (human monoclonal antibody against tetanus toxin) (antibody, V domains shown)
VH: EVQLVESGGGLVQPGGSLRLSCAASGFSFSRHWMSWVRQAPGKGLEWVANIHYDLSEKYFVDSVRGRFTISRDNAKNSLYLEMNSLRADDTAVYYCARGGRSTVWPRGWFDLWGQGTLVTVSS
VL: EIVLTQSPGTLSLSPGERATLSCRASQSVSSSYLAWYQQKPGQAPRLLIYGASGRATGIPDRFSGSGSGTHFTLTISRLEPEDFAVYFCQQFADSRTFGQGTKLEIKR
B2: Antibody 5 (human monoclonal antibody against tetanus toxin) (antibody, V domains shown)
VH: QLVQSGAEVKKPGSSVKVSCKASGGTLSGFAINWVRQAPGQGLEWMGGIIPDTGSPTYVQRFQGRVTMTADKSTSTAYMELNSLRSDDTAVYYCARSVMITFGGVLTPPNFDFWGQGTLVTVSS
VL: DIQMTQSPSSLSASVGDRVTISCRASQAISIYLNWYQQRPGKAPRLLIYAASNLQSGVPSRFSASGSGTDFTLTISSLQPEDFATYYCQQSKENPPTFGQGTKLEIKR

Target: T1, fragment C of tetanus toxoid (Sigma, …)

| Binder | Kd |
| --- | --- |
| B1 | 34 nM |
| B2 | 0.16 nM |

From WO2012007688A1 (dated 2012)
